From patent US20230060388A1 (SHANGHAI HENLIUS BIOTECH, published 2023)

T1: recombinant mouse TIGIT (mouse, UniProt P86176 29-148, limits assumed)
T1 sequence (looked up): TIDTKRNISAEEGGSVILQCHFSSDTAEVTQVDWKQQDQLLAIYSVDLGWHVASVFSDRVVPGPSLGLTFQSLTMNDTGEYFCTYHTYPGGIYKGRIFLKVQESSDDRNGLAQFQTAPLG

T2: human TIGIT expressed on cells (stably transfected Jurkat cells) (human, UniProt Q495A1 22-244)
T2 sequence: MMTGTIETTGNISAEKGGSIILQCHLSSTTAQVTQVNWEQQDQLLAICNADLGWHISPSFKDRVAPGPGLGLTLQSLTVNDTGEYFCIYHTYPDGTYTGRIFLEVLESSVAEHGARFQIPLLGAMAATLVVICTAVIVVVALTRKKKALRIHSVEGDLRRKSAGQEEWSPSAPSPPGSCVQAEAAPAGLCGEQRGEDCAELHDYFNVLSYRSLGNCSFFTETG

T3: recombinant human TIGIT extracellular domain (ECD) (human, UniProt Q495A1 22-138)
T3 construct: also called h-TIGIT ECD; recombinant human TIGIT ECD
T3 sequence: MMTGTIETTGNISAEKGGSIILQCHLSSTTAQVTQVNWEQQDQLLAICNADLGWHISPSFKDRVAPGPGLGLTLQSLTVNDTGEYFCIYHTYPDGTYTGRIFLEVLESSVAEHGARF

T4: his-tagged recombinant human TIGIT ECD (human, UniProt Q495A1 22-138)
T4 construct: also called h-TIGIT ECD (his-tagged); not shown: his tag
T4 sequence: T3 sequence

B1: 2A3-Fc (bivalent 2A3 antibody) (Fc fusion)
chain: QVQLVESGGGVVQPGRSLRLSCAASGGSFSSYPMGWFRQAPGKERESVAAISSDMRFTYYADSVKGRFTISRDNSKNTLYLQMNSLRAEDTAVYYCAARDSGVGYYSRAQWYDYWGQGTLVTVSS
notes: also called parental 2A3-Fc; 2A3 clone; not shown: human IgG1 CH2 and CH3 domains
B2: parental anti-PD1 monoclonal antibody (antibody, human IgG4 S228P, kappa, V domains shown)
VH: QVQLVESGGGLVKPGGSLRLSCAASGFTFSNYGMSWIRQAPGKGLEWVSTISGGGSNIYYADSVKGRFTISRDNAKNSLYLQMNSLRAEDTAVYYCVSYYYGIDFWGQGTSVTVSS
VL: DIQMTQSPSSLSASVGDRVTITCKASQDVTTAVAWYQQKPGKAPKLLIYWASTRHTGVPSRFSGSGSGTDFTLTISSLQPEDFATYYCQQHYTIPWTFGGGTKLEIKR
notes: Antibody from WO 2018/052818 A1; also called aPD1; parental mAb anti-PD1

Experiments:
recombinant mouse TIGIT = molecular target: T1, recombinant mouse TIGIT; experiment: ELISA, recombinant mouse-TIGIT
[1] = molecular target: T2, human TIGIT expressed on cells (stably …); experiment: cell-based or functional assay
[2] = molecular target: T5, recombinant cynomolgus TIGIT (cynomolgus monkey); experiment: ELISA on recombinant cyno-TIGIT
T5 construct: also called cyno-TIGIT; cyno-TIGIT ECD
Description: (§1) FIGS. 8A-8C depict cross-binding activity of 2A3-Fc to human-, cyno- and mouse-TIGIT determined by ELISA assays. […] Reference Ab 2 is an anti-h-TIGIT reference antibody. Both 2A3-Fc and Reference Ab 2 bind to h-TIGIT with similar affinity. […] Both 2A3-Fc and Reference Ab 2 bind to cyno-TIGIT with similar affinity. […] Y axis represents OD450, X axis represents antibody concentrations in μg/ml.
(§2) Cross-species binding activity of 2A3-Fc to human, cynomolgus and mouse TIGIT was determined by ELISA assays, results of which are shown in FIGS. 8A-8C. 2A3-Fc bound to human, cynomolgus monkey but not mouse TIGIT.

[3] = molecular target: T3, recombinant human TIGIT extracellular …; experiment: ELISA on recombinant human TIGIT ECD
Description: as §1, §2

[4] = molecular target: T2, human TIGIT expressed on cells (stably …); experiment: flow cytometry on h-TIGIT transfected Jurkat cells (whole cell binding), Alexa Fluor 488 [upper panel]
[5] = molecular target: T6, human PD1 expressed on transfected Jurkat cells (human, UniProt Q15116 25-288); experiment: cell-based or functional assay
[6] = molecular target: T6, human PD1 expressed on transfected …; experiment: PD1 WCB: whole cell binding, flow cytometry, h-PD1 Jurkat cells; mean
Description: The binding affinities of the BsAbs to human PD1 were also determined by whole cell binding assays using human PD1 transfected Jurkat cells. Antibodies were incubated with h-PD1 transfected Jurkat cells, and binding was determined using a secondary anti-h-IgG antibody conjugated with AlexaFluor488, which was detected by flow cytometry.

[7] = molecular target: T4, his-tagged recombinant human TIGIT ECD; experiment: Octet, antibody loaded on the sensor, his-tagged h-PD1 ECD injected first, his-tagged h-TIGIT ECD second
[8] = molecular target: T6, human PD1 expressed on transfected …; experiment: flow cytometry (whole cell binding) on h-PD1 transfected Jurkat cells; table under the graph, Average (n=4), SD 0.18

T6 sequence (Q15116 25-288): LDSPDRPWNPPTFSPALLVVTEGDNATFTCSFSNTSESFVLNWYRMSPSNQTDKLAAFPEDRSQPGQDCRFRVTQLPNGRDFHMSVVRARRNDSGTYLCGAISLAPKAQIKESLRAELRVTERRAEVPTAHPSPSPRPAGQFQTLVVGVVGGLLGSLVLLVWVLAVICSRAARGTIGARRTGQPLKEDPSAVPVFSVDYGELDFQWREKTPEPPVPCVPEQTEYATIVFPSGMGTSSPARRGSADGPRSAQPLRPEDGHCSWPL

Binder	binding result (recombinant mouse TIGIT)	EC50 (read off the curve) of the NFAT luciferase reporter activity, TIGIT blockade assay [lower panel] [1] [nM]	EC50 (read off the curve) [2] [µg/mL]	EC50 (read off the curve) [3] [µg/mL]	EC50 (read off the curve) [4] [nM]	EC50 (Mean, nM), PD1 Blockade Assay [5] [nM]	EC50 [6] [nM]	binding result [7]	EC50 [8] [nM]
B1	no binding	~1	~0.1	~0.1	~0.5	–	–	–	–
B2	–	–	–	–	–	0.73	0.6	no binding (tested: concentrations not printed)	0.36
